{
  "source": "patent US20220098307A1",
  "about": "(WUHAN YZY BIOPHARMA, published 2022)",
  "binders": {"B1": {"name": "M2IC-GG2 (bispecific antibody, human IgG1, kappa)", "chain": "EVKLDETGGGLVQPGRPMKLSCVASGFTFSDYWMNWVRQSPEKGLEWVAQIRNKPYNYETYYSDSVKGRFTISRDDSKSSVYLQMNNLRVEDMGIYYCTGSYYGMDYWGQGTSVTVSSASTKGPSVFPLAPSSKSTSGGTAALGCLVKDYFPEPVTVSWNSGALTSGVHTFPAVLQSSGLYSLSSVVTVPSSSLGTQTYICNVNHKPSNTKVDKKVEPKSCDKTHTGGGSAAAQVQLVESGGGVVQPGRSLRLSCAASGFTFSTYAMNWVRQAPGKGLEWVARIRSKYNNYATYYADSVKDRFTISRDDSKNTLYLQMNSLRAEDTAVYYCARHGNFGNSYVSWFAYWGQGTLVTVSSGGGGSGGGGSGGGGSQTVVTQEPSLTVSPGGTVTLTCRSSTGAVTTSNYANWVQQKPGQAPRGLIGGTNKRAPGVPARFSGSLLGGKAALTLSGVQPEDEAEYYCALWYSNLWVFGGGTKVEIKGGGGSDKTHTCPPGPAPPVAGPSVFLFPPKPKDTLMISRTPEVTCVVVDVSHEDPEVQFNWYVDGVEVHNAKTKPREEQFNSTFRVVSVLTVVHQDWLNGKEYKCKVSNKGLPAPIEKTISKTKGQPREPQVYTLPPCRDELTKNQVSLWCLVKGFYPSDIAVEWESNGQPENNYKTTPPVLDSDGSFFLYSKLTVDKSRWQQGNVFSCSVMHEALHNHYTQKSLSLSPGK", "heavy": "EVKLDETGGGLVQPGRPMKLSCVASGFTFSDYWMNWVRQSPEKGLEWVAQIRNKPYNYETYYSDSVKGRFTISRDDSKSSVYLQMNNLRVEDMGIYYCTGSYYGMDYWGQGTSVTVSSASTKGPSVFPLAPSSKSTSGGTAALGCLVKDYFPEPVTVSWNSGALTSGVHTFPAVLQSSGLYSLSSVVTVPSSSLGTQTYICNVNHKPSNTKVDKKVEPKSCDKTHTCPPGPAPPVAGPSVFLFPPKPKDTLMISRTPEVTCVVVDVSHEDPEVQFNWYVDGVEVHNAKTKPREEQFNSTFRVVSVLTVVHQDWLNGKEYKCKVSNKGLPAPIEKTISKTKGQPREPQVCTLPPSRDELTKNQVSLSCAVKGFYPSDIAVEWESNGQPENNYKTTPPVLDSDGSFFLVSKLTVDKSRWQQGNVFSCSVMHEALHNRFTQKSLSLSPGK", "light": "DVVMTQTPLSLPVSLGDQASISCRSSQSLVHSNGNTYLRWYLQKPGQSPKVLIYKVSNRFSGVPDRFSGSGSGTDFTLKISRVEAEDLGVYFCSQSTHVPWTFGGGTKLEIKRTVAAPSVFIFPPSDEQLKSGTASVVCLLNNFYPREAKVQWKVDNALQSGNSQESVTEQDSKDSTYSLSSTLTLSKADYEKHKVYACEVTHQGLSSPVTKSFNRGEC", "notes": "structure 2 isotype control; CH2 GG2CH2"}, "B2": {"name": "M2IC-PG2 (bispecific antibody, human IgG1, kappa)", "chain": "B1 chain with G496P", "heavy": "B1 heavy with G230P", "light": "B1 light", "notes": "structure 2 isotype control; CH2 PG2CH2"}, "B3": {"name": "M2IC-SG2 (bispecific antibody, human IgG1, kappa)", "chain": "B1 chain with G496S", "heavy": "B1 heavy with G230S", "light": "B1 light", "notes": "structure 2 isotype control; CH2 SG2CH2"}, "B4": {"name": "M3IC-G2 (bispecific antibody)", "chain 1": "EVKLDETGGGLVQPGRPMKLSCVASGFTFSDYWMNWVRQSPEKGLEWVAQIRNKPYNYETYYSDSVKGRFTISRDDSKSSVYLQMNNLRVEDMGIYYCTGSYYGMDYWGQGTSVTVSSASTKGPSVFPLAPSSKSTSGGTAALGCLVKDYFPEPVTVSWNSGALTSGVHTFPAVLQSSGLYSLSSVVTVPSSSLGTQTYICNVNHKPSNTKVDKKVEPKSCGGGGSGGGGSQVQLVESGGGVVQPGRSLRLSCAASGFTFSTYAMNWVRQAPGKGLEWVARIRSKYNNYATYYADSVKDRFTISRDDSKNTLYLQMNSLRAEDTAVYYCARHGNFGNSYVSWFAYWGQGTLVTVSSASVAAPSVFIFPPSDEQLKSGTASVVCLLNNFYPREAKVQWKVDNALQSGNSQESVTEQDSKDSTYSLSSTLTLSKADYEKHKVYACEVTHQGLSSPVTKSFNRGECDKTHTCPPCPAPPVAGPSVFLFPPKPKDTLMISRTPEVTCVVVDVSHEDPEVQFNWYVDGVEVHNAKTKPREEQFNSTFRVVSVLTVVHQDWLNGKEYKCKVSNKGLPAPIEKTISKTKGQPREPQVYTLPPCRDELTKNQVSLWCLVKGFYPSDIAVEWESNGQPENNYKTTPPVLDSDGSFFLYSKLTVDKSRWQQGNVFSCSVMHEALHNHYTQKSLSLSPGK", "chain 2": "QTVVTQEPSLTVSPGGTVTLTCRSSTGAVTTSNYANWVQQKPGQAPRGLIGGTNKRAPGVPARFSGSLLGGKAALTLSGVQPEDEAEYYCALWYSNLWVFGGGTKVEIKSSASTKGPSVFPLAPSSKSTSGGTAALGCLVKDYFPEPVTVSWNSGALTSGVHTFPAVLQSSGLYSLSSVVTVPSSSLGTQTYICNVNHKPSNTKVDKKVEPKSC", "heavy": "B1 heavy with G230C", "light": "B1 light", "notes": "structure 3 isotype control; CH2 G2CH2"}, "B5": {"name": "M3IC-AG2 (bispecific antibody)", "chain 1": "B4 chain 1 with C472A", "chain 2": "B4 chain 2", "heavy": "B1 heavy with G230A", "light": "B1 light", "notes": "structure 3 isotype control; CH2 AG2CH2"}, "B6": {"name": "M3IC-DG2 (bispecific antibody)", "chain 1": "B4 chain 1 with D507A", "chain 2": "B4 chain 2", "heavy": "B1 heavy with G230C, D265A", "light": "B1 light", "notes": "structure 3 isotype control; CH2 DG2CH2"}, "B7": {"name": "M3IC-DG2D (bispecific antibody)", "chain 1": "B4 chain 1 with D507A, D512A", "chain 2": "B4 chain 2", "heavy": "B1 heavy with G230C, D265A, D270A", "light": "B1 light", "notes": "structure 3 isotype control; CH2 DG2DCH2"}, "B8": {"name": "M3IC-G2D (bispecific antibody)", "chain 1": "B4 chain 1 with D512A", "chain 2": "B4 chain 2", "heavy": "B1 heavy with G230C, D270A", "light": "B1 light", "notes": "structure 3 isotype control; CH2 G2DCH2"}, "B9": {"name": "M3IC-GG2 (bispecific antibody)", "chain 1": "B4 chain 1 with C472G", "chain 2": "B4 chain 2", "heavy": "B1 heavy", "light": "B1 light", "notes": "structure 3 isotype control; CH2 GG2CH2"}, "B10": {"name": "M3IC-PG2 (bispecific antibody)", "chain 1": "B4 chain 1 with C472P", "chain 2": "B4 chain 2", "heavy": "B1 heavy with G230P", "light": "B1 light", "notes": "structure 3 isotype control; CH2 PG2CH2"}, "B11": {"name": "M3IC-SG2 (bispecific antibody)", "chain 1": "B4 chain 1 with C472S", "chain 2": "B4 chain 2", "heavy": "B1 heavy with G230S", "light": "B1 light", "notes": "structure 3 isotype control; CH2 SG2CH2"}},
  "note": "Numbering of substitutions follows the chain as printed.",
  "data": [
    {"molecular_target": "T1, Human CD3ε (human, UniProt P07766 23-126)", "T1 construct": "CD3 on T cells isolated from human whole blood", "test": "flow cytometry, human T cells", "outline": "(§1)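 Cells expressing the target antigen (CD38+ MM.1S or RPMI 8226 for CD38; isolated T cells for CD3) were plated at 2×10⁵ per well in 1% FBS-PBS on ice. Antibody was titrated 3-fold over 11 points from 3000 nM and incubated 2 h at 4° C with shaking, followed by PE anti-human IgG Fc.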", "units": {"EC50": "nM"}, "values": [
      {"binder": "B1", "EC50": 556},
      {"binder": "B2", "EC50": 467},
      {"binder": "B3", "EC50": 481},
      {"binder": "B4", "EC50": 701},
      {"binder": "B5", "EC50": 674},
      {"binder": "B6", "EC50": 710},
      {"binder": "B7", "EC50": 638},
      {"binder": "B8", "EC50": 607},
      {"binder": "B9", "EC50": 609},
      {"binder": "B10", "EC50": 696},
      {"binder": "B11", "EC50": 677}
    ]},
    {"molecular_target": "T2, Monkey CD3 (monkey)", "T2 construct": "whole, on cells; also called CD3 of monkey CD3 positive T cells", "test": "flow cytometry, monkey T cells", "units": {"EC50": "nM"}, "values": [
      {"binder": "B1", "EC50": 538},
      {"binder": "B2", "EC50": 656},
      {"binder": "B3", "EC50": 525}
    ]},
    {"molecular_target": "T3, human CEA (human, UniProt P06731 35-685)", "T3 sequence": "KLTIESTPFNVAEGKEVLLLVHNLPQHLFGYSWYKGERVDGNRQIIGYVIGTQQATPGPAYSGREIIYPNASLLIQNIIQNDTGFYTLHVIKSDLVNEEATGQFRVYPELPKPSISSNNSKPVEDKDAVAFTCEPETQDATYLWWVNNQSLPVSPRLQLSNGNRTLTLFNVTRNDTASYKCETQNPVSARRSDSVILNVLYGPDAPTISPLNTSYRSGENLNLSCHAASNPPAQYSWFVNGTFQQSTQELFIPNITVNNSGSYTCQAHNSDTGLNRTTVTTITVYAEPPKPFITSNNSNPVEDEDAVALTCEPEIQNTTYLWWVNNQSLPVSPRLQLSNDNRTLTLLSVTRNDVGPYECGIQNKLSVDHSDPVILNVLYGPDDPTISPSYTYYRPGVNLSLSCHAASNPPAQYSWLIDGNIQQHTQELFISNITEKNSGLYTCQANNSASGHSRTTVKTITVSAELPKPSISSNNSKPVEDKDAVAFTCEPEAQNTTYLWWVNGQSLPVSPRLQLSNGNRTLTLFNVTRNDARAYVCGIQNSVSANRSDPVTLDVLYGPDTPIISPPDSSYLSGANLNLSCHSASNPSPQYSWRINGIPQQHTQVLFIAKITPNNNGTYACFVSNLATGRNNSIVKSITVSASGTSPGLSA", "test": "flow cytometry, human tumor cells (table of the CEA series)", "excerpt": "1) Cell preparation: T cells isolated from CD3-positive human whole blood were used for a CD3 end affinity detection of multifunctional antibody molecule; positive tumor cells of corresponding antigen were used for detecting affinity of tumor antigen; for example, CD38-positive MM. 1S cells (purchased from the Cell Resource Center of Shanghai Institutes for Biological Sciences, Chinese Academy of Sciences) or RPMI 8226 cells (purchased from the Cell Resource Center of Shanghai Institutes for Biological Sciences, Chinese Academy of Sciences) were used for CD38 antigen detection, and PD-L1 positive H358 cells (purchased from the Cell Resource Center of Shanghai Institutes for Biological Sciences, Chinese Academy of Sciences) were used for PD-L1 antigen detection, and so on. The cells were resuspended with 1% FBS-PBS, adjusted to a density of 4×10⁶/ml, and 50 μl of cells were taken from each well, and then plated at 2×10⁵ per well. Cell plating was operated on ice\n2) Addition of the antibody: according to the experimental design, the antibody was diluted gradually, and dilution of antibody was operated on ice. For example, the initial concentration of antibody for dilution was 3000 nM, and the antibody was diluted by 3 times with 11 concentration gradients. The diluted antibody was added to a cell well at 50 μl per well, mixed well, and shaked and incubated at 4° C. 1100 rpm/min for 2 h; after washing, the cells were resuspend in 1% FBS-PBS, and a diluted secondary antibody PE anti-human IgG FC (Biolegend, 409304) was added with a final concentration of 8 ug/ml and a volume of 50 μl/well. At the same time, a well only added with cells and secondary antibody was set as a control, the components were mixed well, and incubated under shaking at 1100 rpm/min at 4° C. for 1 h;\n5) Data analysis: the data was analyzed by a flow analysis software FlowJo 7.6 thereby obtaining an average fluorescence intensity of the specific antibody concentration, plotted by a Graphpad Prism 5 with the antibody concentration (nM) as an abscissa and the average fluorescence intensity as an ordinate; the EC50 value was calculated by the method of One site—Specific binding, and the EC50 value indicated the cell affinity of the antibody to the corresponding target antigen.", "values": [
      {"binder": "B4", "binding result": "no binding"},
      {"binder": "B5", "binding result": "no binding"},
      {"binder": "B6", "binding result": "no binding"},
      {"binder": "B7", "binding result": "no binding"},
      {"binder": "B8", "binding result": "no binding"},
      {"binder": "B9", "binding result": "no binding"},
      {"binder": "B10", "binding result": "no binding"},
      {"binder": "B11", "binding result": "no binding"}
    ]},
    {"molecular_target": "T4, Human BCMA (human, UniProt Q02223 1-54)", "T4 sequence": "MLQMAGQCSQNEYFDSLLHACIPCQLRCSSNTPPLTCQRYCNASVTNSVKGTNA", "test": "flow cytometry, human tumor cells (table of the BCMA series)", "outline": "as §1", "values": [
      {"binder": "B1", "binding result": "no binding"},
      {"binder": "B2", "binding result": "no binding"},
      {"binder": "B3", "binding result": "no binding"}
    ]}
  ]
}
